Data from patent publication US20160274120A1, “METHODS OF DETERMINING WHETHER THE WNT SIGNALING PATHWAY IS UPREGULATED IN A TUMOR” (ICAHN SCHOOL OF MEDICINE AT MOUNT SINAI, priority 2009, published 2016).

B1: DKK1: Dickkopf-1, secreted Wnt antagonist binding co-receptor LRP6; Flag-tagged, expressed from lentiviral vector (protein, UniProt O94907 32-266, looked up)
Dickkopf-related protein 1: TLNSVLNSNAIKNLPPPLGGAAGHPGSAVSAAPGILYPGGNKYQTIDNYQPYPCAEDEECGTDEYCASPTRGGDAGVQICLACRKRRKRCMRHAMCCPGNYCKNGICVSSDQNHFRGEIEETITESFGNDHSTLDGYSRRTTLSSKMYHTKGQEGSVCLRSSDCASGLCCARHFWSKICKPVLKEGQVCTKHRRKGSHGLEIFQRCYCGEGLSCRIQKDHHQASNSSRLHTCQRH
modifications: Flag tag
notes: Flag-tagged, expressed from lentiviral vector
B2: FRP1: secreted Frizzled Related Protein, Wnt antagonist inhibiting Wnt ligand-receptor interaction; HA-tagged, expressed from lentiviral vector (protein, UniProt Q8N474 32-314, looked up)
Secreted frizzled-related …: SEYDYVSFQSDIGPYQSGRFYTKPPQCVDIPADLRLCHNVGYKKMVLPNLLEHETMAEVKQQASSWVPLLNKNCHAGTQVFLCSLFAPVCLDRPIYPCRWLCEAVRDSCEPVMQFFGFYWPEMLKCDKFPEGDVCIAMTPPNATEASKPQGTTVCPPCDNELKSEAIIEHLCASEFALRMKIKEVKKENGDKKIVPKKKKPLKLGPIKKKDLKKLVLYLKNGADCPCHQLDNLSHHFLIMGRKVKSQYLLTAIHKWDKKNKEFKNFMKKMKNHECPTFQSVFK
modifications: HA tag
notes: HA-tagged, expressed from lentiviral vector

Experiments:
human sarcoma cells = assay: Proliferation of sarcoma cells in vitro (1000 cells/60 mm, 10 days, crystal violet); assay type: cell-based; settings: A2984, HT1080 and HCT116 cells, lentiviral shRNA
Procedure: FIGS. 16A-16F. Downregulation of CDC25A, a novel Wnt target gene, inhibits proliferation of human sarcoma cells in vitro. A. CDC25A is a direct target of Wnt signaling in sarcoma cells. Chromatin immunoprecipitation was conducted on DNA extracted from U-2 OS, a Wnt autocrine sarcoma cell line. Monoclonal antibody against β-catenin was used in immunoprecipitation. Axin 2, a known Wnt target gene, was used as a positive control. […] C. Downregulation of Wnt signaling (assayed by TCF4 reporter activity) in sarcoma cells expressing dnTCF4. Cells stably expressing TOP luciferase and a normalizer, renilla luciferase, were used in this assay. D. dnTCF expression induces growth arrest in sarcoma cells. Indicated human sarcoma cells were stably infected with dnTCF or an empty vector control and selected in puromycin for 3 days. Cells were plated at 1000 cells/60 mm
density and cultured for 10 days. […] E Knockdown of CDC25A or c-myc induces growth arrest in sarcoma cells. HCTZ 16, a human colon cancer cell line was used for comparison. Indicated cells were stably infected with either empty vector control or shRNA specific for CDC25A or c-myc and selected in puromycin and plated at 1000 cells/60 mm plate and cultured for 10 days. Cells were fixed and stained with crystal violet. F. Western blotting to show specific downregulation of CDC25A or c-myc after shRNA expression in indicated cells. […]

TCF reporter activity = assay: TCF mediated luciferase reporter activity (TOP/FOP) in NSCLC cell lines; assay type: cell-based, human; settings: around 30% of Wnt activated NSCLC lines (summary)
Procedure: 24 hours before infection, stable reporter cell lines expressing TOP or FOP TCF luciferase and renilla luciferase were plated in 6 well plates at I×IO^5 cells/well. The following day cells were infected with lentiviruses expressing different Wnt antagonists, selected with 2 μg/ml puromycin for 3 days, lysed and processed for luciferase reporter assay using the dual luciferase reporter Kit (Promega) according to the manufacturer's protocol. Luciferase reporter activity was calculated by dividing the ratio TOP/RL by the FOP/RL ratio. Results were normalized to the results with vector transduced cultures.
(§1) analysis, cells were co-infected with TOP or FOP firefly luciferase mixed with a lentivirus expressing renilla luciferase (RL) used to normalize for infection efficiency (1:20-1:40 ratio). To assess the effects of FRP1 and DKK1 on TCF luciferase reporter activity, stable reporter cell lines were plated in 6 well plates and infected with vector, FRP1 or DKK1 lentiviruses. Cells were selected for 3 days with puromycin, lysed and processed for dual luciferase analysis. To generate stable inducible lines, cells were infected consecutively with tetracycline trans-activator (tTa) expressing lentivirus, selected for two weeks with 5-10 μg/ml blasticidin, followed by a second infection with lentiviruses expressing inducible FRP1, DKK1, DNTCF-4 or DNTCF-4-mOrange or empty vector, and selected for 4-7 days in 2 μg/ml puromycin in the presence of 10 ng/ml doxycycline. For induction of the antagonists, cells were trypsinized, washed with PBS and plated into 10 cm plates in the presence or absence of doxycyclin. Control cells expressing tTa or empty vector were processed in the same way. All infections were performed for 16 hr in the presence of 8 μg/ml polybrene.

NSCLC cells = assay: Cell growth analysis assay (crystal violet staining) of NSCLC cells; assay type: cell-based, human; settings: stable DKK1 expression
From the text: Transduced and marker selected cells were trypsinized, counted and 1-2×10^4 cells plated into 60 mm tissue culture dishes. At 2-3 weeks, cells were washed with PBS, fixed in 10% methanol/acetic acid solution and stained with 1% crystal violet.

axin2 = assay: Real time PCR quantification of axin2 mRNA expression in NSCLC cells; assay type: cell-based, human; settings: around 30% of Wnt activated NSCLC lines (summary)
Procedure: Total RNA was isolated from cells using the Trizol Reagent (Invitrogen) according to the manufacturer's protocol. Semi-quantitative RT-PCR screen was performed using One Step RT-PCR Kit (Invitrogen) according to the manufacturer's protocol. PCR products were separated on 1% agarose gel. 5 μg total RNA was reverse transcribed using Superscript II reverse transcriptase (Invitrogen). Quantitative PCR was performed using SybrGreen 2× master mix (Roche) on a MJ Opticon or Stratagene MxPro3005. 50 ng cDNA were amplified as follows: 94° C. for 15 min, 94° C. for 15 s, 60° C. for 30 s, 72° C. for 1 min. Steps 2 through 4 were repeated for 40 cycles. Each reaction was performed in duplicate, and results of 3 independent experiments were used for statistical analysis. Relative mRNA expression levels were quantified using the ΔΔC(t) method (Pfaffl, 2001). Results were normalized to those for TATA Binding Protein (TBP). Primer sequences can be found in Tables 4 and 5.

uncomplexed β-catenin = assay: Uncomplexed β-catenin, GST-E-cadherin pull-down and immunoblot in NSCLC cells expressing Wnt antagonists; assay type: cell-based, human; settings: for uncomplexed β-catenin level: H1819 NSCLC cells, stable (constitutive) expression
Procedure: FIGS. 2A-2E. Effects of FRP1 and DKK1 inhibition on Wnt/β-catenin signaling and growth of human NSCLC cells. (A) Effects of constitutive expression of FRP1 and DKK1 on uncomplexed β-catenin in H1819 NSCLC cell line. FRP1 and DKK1 expression was determined by immunoblot analysis as described in Materials and methods. (B) Analysis of NSCLC lines for uncomplexed β-catenin using regulatable expression of HA-tagged FRP1 (upper panel) and Flag-tagged DKK1 (lower panel). NSCLC cells expressing Tet regulatable FRP1-HA or DKK1-Flag were generated as described in supplemental Materials and methods. Expression of FRP1-HA or DKK1-Flag was induced by removal of dox from the culture medium. Cells expressing tetracycline Trans-activator (tTa) were used as control. Analysis of uncomplexed β-catenin was performed as described in Materials and methods using 1 mg total cell lysates, except for A427 cells, where 0.1 mg cell lysate was used. FRP1 and DKK1 expression was determined by immunoblot analysis as described in Materials and methods. (C) FRP1 and DKK1 mediated inhibition of TCF luciferase reporter activity in NSCLC cell lines. Luciferase reporter activity was calculated by dividing the TOP/RL ratio by the FOP/RL ratio. Results were normalized to the results with vector transduced cultures. The values represent the mean±SD from two independent experiments. (D) Real time PCR quantification of FRP1 and DKK1 effects on axin2 mRNA expression. H23, Al 146 and H1819 cells were infected with vector (VEC), FRP1-HA or DKK1-Flag lentiviruses. qRT-PCR was performed as described in supplemental Materials and methods. Relative mRNA expression levels were quantified using the ΔΔC(t) method (Pfaffl, 2001). (E) Effects of DKK1 on cell growth. A549, H23, H1819 and A427 cells were infected with lentiviruses expressing vector (VEC) or DKK1-Flag and 2×10^4 cells were plated into 60 mm tissue culture dishes. Cultures were visualized using crystal violet staining 2-3 weeks after plating. Expression of flagged tagged DKK1 was assessed by immunoblot analysis as described in Materials and methods.
GST-E-cadherin binding and immunoblot analysis was performed as previously described (Bafico et al, 1998), with the exception that for human tumor samples it was done with freshly frozen or stored tissue under cold, mild-detergent conditions. Specifically, the following protocol to assay for uncomplexed (active) β-catenin in human tumor samples was used:
as §1

[1] = tested on: autocrine Wnt NSCLC cells; assay: Sensitization of NSCLC cells to cisplatin (colony growth, annexin/PI FACS); assay type: cell-based, human; settings: H23 (autocrine Wnt) vs A549 cells, lentiviral DKK1, cisplatin
Procedure: FIGS. 13A and 13E. […] (A and B) Effects of cisplatin on growth of H23 (A) and A549 (B) cells infected with vector (VEC) or DKK1 expressing lentiviruses. 5×10^3 H23 and A549 cells expressing vector or DKK1 were plated in 60 mm plates. Cells were treated for 4 hr with 5 or 20 μM cisplatin or saline as control and colonies were visualized 2 weeks later by crystal violet staining. (C and D) Effects of cisplatin on apoptosis of H23 (C) and A549 (D) cells infected with vector (VEC) or DKK1 expressing lentiviruses and treated for 3 days with increasing concentrations of cisplatin. Adherent and floating cells were collected and processed for FACS analysis using annexin/PI. The percentage of annexin positive cells in vector or DKK1 infected cells is represented in the line graph. Results are the mean±SD of 3 independent experiments. Statistical two-way analysis of variance (ANOVA) tests with Bonferroni multiple testing corrections were performed. *−p<0.05, **−p<0.01, ***−p<0.001. […] Cell lysates were collected every 24 hr and analyzed by immunoblot. […]
For DNA content analysis, cells were trypsinized, combined with floating cells, washed with PBS, stained with propidium iodide (PI), using the CycleTEST Plus DNA reagent kit (Becton Dickinson) following the manufacturer instructions, and subjected to FACS analysis. […] Results were analyzed using Cell Quest 3.2 software (Becton Dickinson).

[2] = H23 and A1146 tumor lines, inducible system, low expression in the presence of dox
[3] = around 30% of Wnt activated NSCLC lines (summary)

Molecule	proliferation (human sarcoma cells)	TCF reporter activity (TCF reporter activity)	cell growth / proliferation vs vector control (NSCLC cells; A549 (no Wnt activation) and A427 (β-catenin mutant) cells)	cell growth / proliferation vs vector control (NSCLC cells; H23 and H1819 tumor cells)	expression of the Wnt target gene axin2 (axin2)	uncomplexed β-catenin levels (uncomplexed β-catenin; H23 and A1146 cells, full induction (dox removed))	uncomplexed β-catenin levels (uncomplexed β-catenin; [2])	uncomplexed β-catenin level (uncomplexed β-catenin)	uncomplexed β-catenin levels (uncomplexed β-catenin; H2347, H358 or A427 cells)	uncomplexed β-catenin levels (uncomplexed β-catenin; [3])	sensitization to cisplatin treatment [1]
CDC25A shRNA: shRNA specific for CDC25A, 5′CCAGGGAATTTCATTCCTC3′ (SEQ ID NO: 62) (CCAGGGAAATTTCATTCCTC; chemistry not fully specified)	inhibited proliferation to varying degrees	–	–	–	–	–	–	–	–	–	–
B1	–	dramatic decrease	not associated with any detectable growth inhibition	antiproliferative effects	dramatic decrease	further reduced	decrease	marked decrease	no effect	dramatic decrease	specifically sensitizes
B2	–	dramatic decrease	–	–	dramatic decrease	–	significant reduction	marked decrease	no effect	dramatic decrease	–
